Laboratory results as given in patent publication US20180155451A1 (published 2018).

B1: GpH7-B3 variant S298_10E/GpL16-k0 (antibody, human IgG1, kappa)
heavy: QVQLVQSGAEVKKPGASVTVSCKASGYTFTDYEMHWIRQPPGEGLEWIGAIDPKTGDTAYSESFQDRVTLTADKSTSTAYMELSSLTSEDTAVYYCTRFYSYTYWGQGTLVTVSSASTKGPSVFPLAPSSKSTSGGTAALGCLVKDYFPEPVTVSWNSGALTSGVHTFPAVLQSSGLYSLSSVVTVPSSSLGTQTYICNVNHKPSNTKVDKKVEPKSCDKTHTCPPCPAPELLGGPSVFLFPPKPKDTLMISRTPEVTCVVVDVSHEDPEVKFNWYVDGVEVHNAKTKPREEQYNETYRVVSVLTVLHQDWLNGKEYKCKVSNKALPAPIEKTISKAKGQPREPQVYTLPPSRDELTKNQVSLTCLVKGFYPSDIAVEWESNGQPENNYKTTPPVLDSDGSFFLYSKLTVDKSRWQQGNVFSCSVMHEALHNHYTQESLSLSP
light: DIVMTQSPLSLPVTPGEPASISCQASESLVHSNRNTYLHWYLQKPGQSPQLLIYKVSNRFSGVPDRFSGSGSGTDFTLKISRVEAEDVGVYYCSQNTHVPPTFGQGTKVEIERTVAAPSVFIFPPSDEQLKSGTASVVCLLNNFYPREAKVQWKVDNALQSGNSQESVTEQDSKDSTYSLSSTLTLSKADYEKHKVYACEVTHQGLSSPVTKSFNRGEC
notes: mutation in both H chains; also called Ho Ab S298_10E; S298E
B2: GpH7-A5/GpH7-B3 variant S298_10E/GpL16-k0 (He Ab) (antibody, human IgG1, kappa)
heavy 1: not shown
heavy 2: not shown
light: B1 light
notes: He Ab: alteration only in the GpH7-B3 chain
B3: GpH7-A5/GpH7-B3 variant S324_02A/GpL16-k0 (He Ab) (antibody, human IgG1, kappa)
heavy 1: not shown
heavy 2: not shown
light: B1 light
notes: as for B2
B4: GpH7-A5/GpH7-B3 variant S239_01G/GpL16-k0 (He Ab) (antibody, human IgG1, kappa)
heavy 1: not shown
heavy 2: not shown
light: B1 light
notes: as for B2
B5: GpH7-A5/GpH7-B3 variant S298_16H/GpL16-k0 (He Ab) (antibody, human IgG1, kappa)
heavy 1: not shown
heavy 2: not shown
light: B1 light
notes: as for B2
B6: GpH7-A5/GpH7-B3 variant S267_01G/GpL16-k0 (He Ab) (antibody, human IgG1, kappa)
heavy 1: not shown
heavy 2: not shown
light: B1 light
notes: as for B2
B7: GpH7-A5/GpH7-B3 variant Q295_18N/GpL16-k0 (He Ab) (antibody, human IgG1, kappa)
heavy 1: not shown
heavy 2: not shown
light: B1 light
notes: as for B2
B8: GpH7-A5/GpH7-B3 variant Q295_05P/GpL16-k0 (He Ab) (antibody, human IgG1, kappa)
heavy 1: not shown
heavy 2: not shown
light: B1 light
notes: as for B2
B9: GpH7-A5/GpH7-B3 variant S239_09D/GpL16-k0 (He Ab) (antibody, human IgG1, kappa)
heavy 1: not shown
heavy 2: not shown
light: B1 light
notes: as for B2
B10: GpH7-A5/GpH7-B3 variant S324_14T/GpL16-k0 (He Ab) (antibody, human IgG1, kappa)
heavy 1: not shown
heavy 2: not shown
light: B1 light
notes: as for B2
B11: GpH7-A5/GpH7-B3 variant S324_19Q/GpL16-k0 (He Ab) (antibody, human IgG1, kappa)
heavy 1: not shown
heavy 2: not shown
light: B1 light
notes: as for B2
B12: GpH7-A5/GpH7-B3 variant S298_08L/GpL16-k0 (He Ab) (antibody, human IgG1, kappa)
heavy 1: not shown
heavy 2: not shown
light: B1 light
notes: as for B2
B13: GpH7-A5/GpH7-B3 variant Q295_13S/GpL16-k0 (He Ab) (antibody, human IgG1, kappa)
heavy 1: not shown
heavy 2: not shown
light: B1 light
notes: as for B2
B14: GpH7-A5/GpH7-B3 variant S298_18N/GpL16-k0 (He Ab) (antibody, human IgG1, kappa)
heavy 1: not shown
heavy 2: not shown
light: B1 light
notes: as for B2
B15: GpH7-A5/GpH7-B3 variant S337_03V/GpL16-k0 (He Ab) (antibody, human IgG1, kappa)
heavy 1: not shown
heavy 2: not shown
light: B1 light
notes: as for B2
B16: GpH7-A5/GpH7-B3 variant S324_20W/GpL16-k0 (He Ab) (antibody, human IgG1, kappa)
heavy 1: not shown
heavy 2: not shown
light: B1 light
notes: as for B2
B17: GpH7-A5/GpH7-B3 variant S298_19Q/GpL16-k0 (He Ab) (antibody, human IgG1, kappa)
heavy 1: not shown
heavy 2: not shown
light: B1 light
notes: as for B2
B18: GpH7-A5/GpH7-B3 variant Q295_14T/GpL16-k0 (He Ab) (antibody, human IgG1, kappa)
heavy 1: not shown
heavy 2: not shown
light: B1 light
notes: as for B2
B19: GpH7-A5/GpH7-B3 variant S298_15Y/GpL16-k0 (He Ab) (antibody, human IgG1, kappa)
heavy 1: not shown
heavy 2: not shown
light: B1 light
notes: as for B2
B20: GpH7-A5/GpH7-B3 variant S298_03V/GpL16-k0 (He Ab) (antibody, human IgG1, kappa)
heavy 1: not shown
heavy 2: not shown
light: B1 light
notes: as for B2
B21: GpH7-A5/GpH7-B3 variant S298_14T/GpL16-k0 (He Ab) (antibody, human IgG1, kappa)
heavy 1: not shown
heavy 2: not shown
light: B1 light
notes: as for B2
B22: GpH7-A5/GpH7-B3 variant S324_08L/GpL16-k0 (He Ab) (antibody, human IgG1, kappa)
heavy 1: not shown
heavy 2: not shown
light: B1 light
notes: as for B2
B23: GpH7-A5/GpH7-B3 variant S337_01G/GpL16-k0 (He Ab) (antibody, human IgG1, kappa)
heavy 1: not shown
heavy 2: not shown
light: B1 light
notes: as for B2
B24: GpH7-A5/GpH7-B3 variant S267_03V/GpL16-k0 (He Ab) (antibody, human IgG1, kappa)
heavy 1: not shown
heavy 2: not shown
light: B1 light
notes: as for B2
B25: GpH7-A5/GpH7-B3 variant S267_02A/GpL16-k0 (He Ab) (antibody, human IgG1, kappa)
heavy 1: not shown
heavy 2: not shown
light: B1 light
notes: as for B2
B26: GpH7-A5/GpH7-B3 variant S337_02A/GpL16-k0 (He Ab) (antibody, human IgG1, kappa)
heavy 1: not shown
heavy 2: not shown
light: B1 light
notes: as for B2
B27: GpH7-A5/GpH7-B3 variant S324_03V/GpL16-k0 (He Ab) (antibody, human IgG1, kappa)
heavy 1: not shown
heavy 2: not shown
light: B1 light
notes: as for B2
B28: GpH7-A5/GpH7-B3 variant S298_07I/GpL16-k0 (He Ab) (antibody, human IgG1, kappa)
heavy 1: not shown
heavy 2: not shown
light: B1 light
notes: as for B2
B29: GpH7-A5/GpH7-B3 variant S267_09D/GpL16-k0 (He Ab) (antibody, human IgG1, kappa)
heavy 1: not shown
heavy 2: not shown
light: B1 light
notes: as for B2
B30: GpH7-A5/GpH7-B3 variant Q295_07I/GpL16-k0 (He Ab) (antibody, human IgG1, kappa)
heavy 1: not shown
heavy 2: not shown
light: B1 light
notes: as for B2

target: T1, FcγRIa extracellular domain with C-terminal His tag (human, UniProt P12314 16-292); assay: SPR Biacore, relative FcγRIa binding vs GpH7-B3/GpL16-k0
T1 construct: extracellular domain; also called FcgRI; CD64; not shown: His tag at the C terminus
T1 sequence (P12314 16-292): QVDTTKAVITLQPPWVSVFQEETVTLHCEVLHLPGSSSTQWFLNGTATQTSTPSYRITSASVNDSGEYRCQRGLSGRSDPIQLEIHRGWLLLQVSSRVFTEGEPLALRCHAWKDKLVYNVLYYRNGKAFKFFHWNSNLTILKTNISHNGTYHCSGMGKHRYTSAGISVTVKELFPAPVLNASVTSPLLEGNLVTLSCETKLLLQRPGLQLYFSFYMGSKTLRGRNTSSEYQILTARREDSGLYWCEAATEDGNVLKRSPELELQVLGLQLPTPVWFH

| Ho/Con_1a | Binder |
| --- | --- |
| 106 % of HoCon Ab (=100) | B1 |

target: T2, FcγRIa extracellular domain with C-terminal His tag (human, UniProt P12314 16-292); assay: SPR Biacore, antibody captured, FcγRIa analyte; vs GpH7-A5/GpH7-B3/GpL16-k0 = 100
T2 construct: extracellular domain; Expressed in FreeStyle293 cells; analyte in Biacore; also called FcgRI; FcgRIa
T2 sequence (P12314 16-292): as above

| He/Con_1a | Binder |
| --- | --- |
| 108 relative (control = 100) | B2 |
| 103 relative (control = 100) | B3 |
| 101 relative (control = 100) | B4 |
| 109 relative (control = 100) | B5 |
| 103 relative (control = 100) | B6 |
| 102 relative (control = 100) | B7 |
| 103 relative (control = 100) | B8 |
| 101 relative (control = 100) | B9 |
| 121 relative (control = 100) | B10 |
| 112 relative (control = 100) | B11 |
| 107 relative (control = 100) | B12 |
| 102 relative (control = 100) | B13 |
| 108 relative (control = 100) | B14 |
| 107 relative (control = 100) | B15 |
| 114 relative (control = 100) | B16 |
| 109 relative (control = 100) | B17 |
| 103 relative (control = 100) | B18 |
| 107 relative (control = 100) | B19 |
| 110 relative (control = 100) | B20 |
| 107 relative (control = 100) | B21 |
| 103 relative (control = 100) | B22 |
| 107 relative (control = 100) | B23 |
| 106 relative (control = 100) | B24 |
| 109 relative (control = 100) | B25 |
| 106 relative (control = 100) | B26 |
| 104 relative (control = 100) | B27 |
| 107 relative (control = 100) | B28 |
| 110 relative (control = 100) | B29 |
| 103 relative (control = 100) | B30 |
